These results are taken from patent US20230220034A1, “METHOD FOR IMPROVING SOLUBILITY OF PROTEIN AND PEPTIDE BY USING IMMUNOGLOGULIN FC FRAGMENT LINKAGE” (HANMI PHARM. CO., LTD., priority 2014, published 2023).

Series [1] is described as follows: Test of solubility of insulin and long-acting insulin conjugate (RP-HPLC against calibration standard curve). The settings on record: for Measurement value (quantitative value calculated by standard calibration curve): pH 6.0 acetic acid buffer, polysorbate, mannitol, sodium chloride, room temperature, supernatant. It counts as physicochemical. From the text: A respective calibration standard curve of insulin and the long-acting insulin conjugate was first confirmed by Reverse Phase-High Performance Liquid Chromatography (RP-HPLC), as in FIG. 1.

For series [2] the following is noted: pH 5.6.

Read-outs that look alike come from different tables or passages of the source. Square brackets hold non-standard residues; d marks the D form. Ends that are not written are not given here. Aib = CC(C)(N)C(=O)O

Insulin gave a solubility in series [1] (FIG. 2, composition of Table 1, pH 6.0) of 0.628 mg/mL. Further, the “difference between the theoretical value and the measurement value” in series [1] (dissolved in long-acting insulin conjugate formulation buffer, pH 6.0) is recorded as “up to 16 times”. Moreover, the pellets after centrifugation result in series [1] (long-acting insulin conjugate formulation buffer, all cases, excluding 0.008 mg/mL) is recorded as “pellets were observed”. Also, the “point at which completely dissolved without impurities or pellet (minimum quantitative value)” value in series [1] (serial dilution of test material from about 10 mg/mL, pH 6.0) turned out to be 0.008 mg/mL. The “Measurement value (quantitative value calculated by standard calibration curve)” value is 0.000 mg/mL in series [1] (theoretical quantitative value 0.008 mg/mL); 0.000 mg/mL in series [1] (theoretical quantitative value 0.04 mg/mL); 0.005 mg/mL in series [1] (theoretical quantitative value 0.2 mg/mL); 0.047 mg/mL in series [1] (theoretical quantitative value 1 mg/mL); 0.253 mg/mL in series [1] (theoretical quantitative value 5 mg/mL); 0.628 mg/mL in series [1] (theoretical quantitative value 10 mg/mL).

As to “Oxyntomodulin derivative: oxyntomodulin derivative having the amino acid sequence of SEQ ID NO: 27, cysteine residue at position 30 (H[Aib]QGTFTSDYSKYLDEKRAKEFVQWLMNTC)”, in series [2], the “difference between the theoretical value and the measurement value” is “up to 27 times”; the solubility is 0.188 mg/mL. Besides, the “point at which completely dissolved without impurities or pellet (minimum quantitative value)” value in series [2] (serial dilution of test material from about 5 mg/mL) is listed as 0.008 mg/mL.

Broadly, the solubility is the dissolved amount per volume that the medium holds. A lower solubility goes with little dissolved substance.
